# Ends that are not written are not given here.
# B1: PLEKHM1‐LIR N637V peptide (biotinylated 9-mer) (peptide, UniProt Q9Y4G2 632-640, looked up)
# peptide: EDEWVVVQY
# modifications: also: biotinylated
# notes: PLEKHM1 LIR; source: bought: JPT (biotinylated peptide)
# B2: PLEKHM1‐LIR N637W peptide (biotinylated 9-mer) (peptide, UniProt Q9Y4G2 632-640, looked up)
# peptide: EDEWVWVQY
# modifications: also: biotinylated
# notes: as for B1
# B3: PLEKHM1‐LIR N637I peptide (biotinylated 9-mer) (peptide, UniProt Q9Y4G2 632-640, looked up)
# peptide: EDEWVIVQY
# modifications: also: biotinylated
# notes: as for B1
# B4: PLEKHM1‐LIR W635F peptide (biotinylated 9-mer) (peptide, UniProt Q9Y4G2 632-640, looked up)
# peptide: EDEFVNVQY
# modifications: also: biotinylated
# notes: as for B1
# B5: PLEKHM1‐LIR V636G peptide (ITC) (peptide)
# chain: PQQEDEWGNVQYPD
# modifications: limits taken from the WT ITC peptide (P629-D642); N-terminal GAMG cloning remnant, printed only for WT, left out
# B6: PLEKHM1‐LIR N637C peptide (biotinylated 9-mer) (peptide, UniProt Q9Y4G2 632-640, looked up)
# peptide: EDEWVCVQY
# modifications: also: biotinylated
# notes: as for B1
# B7: PLEKHM1‐LIR W635Y peptide (biotinylated 9-mer) (peptide, UniProt Q9Y4G2 632-640, looked up)
# peptide: EDEYVNVQY
# modifications: also: biotinylated
# notes: as for B1
# B8: PLEKHM1‐LIR peptide (GAMG‐P^629QQEDEWVNVQYPD^642) (peptide)
# peptide: GAMGPQQEDEWVNVQYPD
# notes: cloning artefact left after TEV cleavage; PLEKHM1 LIR, residues 629-642; 13C,15N- or 15N-labelled for some NMR experiments; also called PLEKHM1‐LIR WT; source: E. coli NEB T7, as Ub63 fusion, TEV-cleaved, purified (Ni-NTA, reverse Ni-NTA, gel filtration)
# B9: PLEKHM1‐LIR W635A peptide (ITC) (peptide)
# chain: PQQEDEAVNVQYPD
# modifications: limits taken from the WT ITC peptide (P629-D642); N-terminal GAMG cloning remnant, printed only for WT, left out
# B10: PLEKHM1‐LIR V638I peptide (biotinylated 9-mer) (peptide, UniProt Q9Y4G2 632-640, looked up)
# peptide: EDEWVNIQY
# modifications: also: biotinylated
# notes: as for B1
# B11: PLEKHM1‐LIR N637F peptide (biotinylated 9-mer) (peptide, UniProt Q9Y4G2 632-640, looked up)
# peptide: EDEWVFVQY
# modifications: also: biotinylated
# notes: as for B1
# B12: PLEKHM1‐LIR V638L peptide (biotinylated 9-mer) (peptide, UniProt Q9Y4G2 632-640, looked up)
# peptide: EDEWVNLQY
# modifications: also: biotinylated
# notes: as for B1
# B13: PLEKHM1‐LIR WT peptide (EDEWVNVQY), biotinylated (peptide)
# peptide: EDEWVNVQY
# modifications: also: biotinylated
# notes: PLEKHM1 LIR; also called PLEKHM1 LIR 632–640; source: bought: JPT (biotinylated peptide)
# B14: PLEKHM1‐LIR N637L peptide (biotinylated 9-mer) (peptide, UniProt Q9Y4G2 632-640, looked up)
# peptide: EDEWVLVQY
# modifications: also: biotinylated
# notes: as for B1
# B15: PLEKHM1‐LIR V636C peptide (biotinylated 9-mer) (peptide, UniProt Q9Y4G2 632-640, looked up)
# peptide: EDEWCNVQY
# modifications: also: biotinylated
# notes: as for B1
# B16: PLEKHM1‐LIR N637Y peptide (biotinylated 9-mer) (peptide, UniProt Q9Y4G2 632-640, looked up)
# peptide: EDEWVYVQY
# modifications: also: biotinylated
# notes: as for B1
# B17: PLEKHM1-LIR peptide (GAMG-P629QQEDEWVNVQYPD642) (peptide)
# peptide: GAMGPQQEDEWVNVQYPD
# notes: cloning artefact left after TEV cleavage; PLEKHM1, LIR region, residues 629-642; Used non-labelled in ITC and in the LC3C co-crystal, 15N-labelled in the NMR titrations with non-labelled proteins; The Appendix (D1:p2) calls the ITC peptide 'synthetic', the methods describe the recombinant preparation; also called PLEKHM1-LIR WT; PLEKHM1 629-642; source: E. coli NEB T7, expressed as …
# Columns and labels:
# Conditions in all cases: both partners purified
# 6xHis‐tagged GABARAP‐L2 = molecular target: T1, 6xHis‐tagged GABARAP‐L2 (human, UniProt P60520 1-117); experiment: ELISA; called peptide array: biotinylated peptides immobilised on streptavidin-coated 96-well plates; 1 μM His6-mATG8 in PBS, 0.1% Tween-20, 1% BSA, 1 h, 8°C; anti-His-HRP, TMB, absorbance at 450 nm
# T1 construct: GABARAP-L2/GATE-16, human; also called His6‐GABARAP‐L2; GATE‐16; source: E. coli, isolated
# T1 sequence (P60520 whole entry): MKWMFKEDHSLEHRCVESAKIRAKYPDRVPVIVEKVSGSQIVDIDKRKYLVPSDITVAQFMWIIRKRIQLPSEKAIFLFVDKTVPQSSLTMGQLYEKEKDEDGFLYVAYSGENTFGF
# 6xHis‐tagged GABARAP = molecular target: T2, 6xHis‐tagged GABARAP (human, UniProt O95166 1-117); experiment: as above
# T2 construct: GABARAP, human; also called His6‐GABARAP; source: E. coli, isolated
# T2 sequence (O95166 whole entry): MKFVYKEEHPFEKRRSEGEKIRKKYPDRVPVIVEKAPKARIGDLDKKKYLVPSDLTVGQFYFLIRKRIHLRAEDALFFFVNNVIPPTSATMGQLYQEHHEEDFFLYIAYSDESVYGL
# 6xHis‐tagged GABARAP‐L1 = molecular target: T3, 6xHis‐tagged GABARAP‐L1 (human, UniProt Q9H0R8 1-117); experiment: as above
# T3 construct: GABARAP-L1, human; also called His6‐GABARAP‐L1; source: E. coli, isolated
# T3 sequence (Q9H0R8 whole entry, looked up): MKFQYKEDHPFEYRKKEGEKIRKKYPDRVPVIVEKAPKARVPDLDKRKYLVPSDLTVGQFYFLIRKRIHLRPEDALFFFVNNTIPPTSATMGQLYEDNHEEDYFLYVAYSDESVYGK
# 6xHis‐tagged LC3C = molecular target: T4, 6xHis‐tagged LC3C (human, UniProt Q9BXW4 1-126); experiment: as above
# T4 construct: LC3C, human; also called His6‐LC3C; source: E. coli, isolated
# T4 sequence (Q9BXW4 1-126): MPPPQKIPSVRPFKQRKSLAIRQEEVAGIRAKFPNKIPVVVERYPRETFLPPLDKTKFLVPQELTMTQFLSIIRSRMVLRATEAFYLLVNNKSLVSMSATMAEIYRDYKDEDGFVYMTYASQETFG
# 6xHis‐tagged LC3A = molecular target: T5, 6xHis‐tagged LC3A (human, UniProt Q9H492 1-121); experiment: as above
# T5 construct: LC3A (MAP1LC3A), human; also called His6‐LC3A; MAP1LC3A; source: E. coli, isolated
# 6xHis‐tagged LC3B = 6xHis‐tagged LC3B (human, UniProt Q9GZQ8 1-120); experiment: as above
# [1] = molecular target: T6, GABARAP (for ITC and NMR) (human, UniProt O95166 1-117); experiment: ITC; peptide 0.4 mM titrated into 0.020 mM LC3/GABARAP protein in 26 steps, 25°C; 50 mM Na2HPO4, 100 mM NaCl, pH 7.0; one-site model
# T6 construct: GABARAP, human; source: E. coli NEB T7 Express, purified
# T6 sequence (O95166 whole entry): as the sequence (O95166 whole entry) above
# LC3B (for ITC and NMR) = LC3B (for ITC and NMR) (human, UniProt Q9GZQ8 1-120); experiment: as above
# LC3C (for ITC) = molecular target: T7, LC3C (for ITC) (human, UniProt Q9BXW4 1-126); experiment: as above
# T7 construct: LC3C, human; source: E. coli NEB T7 Express, purified
# T7 sequence (Q9BXW4 1-126): as the sequence (Q9BXW4 1-126) above
# LC3A (for ITC and NMR) = molecular target: T8, LC3A (for ITC and NMR) (human, UniProt Q9H492 1-121); experiment: as above
# T8 construct: LC3A, human; 15N-labelled for NMR; also called MAP1LC3A; source: E. coli NEB T7 Express, purified
# [2] = molecular target: T9, GABARAP‐L2 (for ITC and NMR) (human, UniProt P60520 1-117); experiment: as above
# T9 construct: GABARAP-L2/GATE-16, human; 15N-labelled for NMR; also called GATE‐16; source: E. coli NEB T7 Express, purified
# T9 sequence (P60520 whole entry): as the sequence (P60520 whole entry) above
# [3] = molecular target: T10, GABARAP‐L1 (for ITC and NMR) (human, UniProt Q9H0R8 1-117); experiment: as above
# T10 construct: GABARAP-L1, human; 15N-labelled for NMR; source: E. coli NEB T7 Express, purified
# T10 sequence (Q9H0R8 whole entry): as the sequence (Q9H0R8 whole entry, looked up) above
# LC3B K30R = LC3B K30R (human, UniProt Q9GZQ8 1-120, K30R); experiment: ITC; peptide at 0.4 mM titrated into 0.020 mM LC3B or GABARAP protein in 26 steps, 25 C, VP-ITC, one-site model; 50 mM Na2HPO4, 100 mM NaCl, pH 7.0
# GABARAP R28K = molecular target: T11, GABARAP R28K (human, UniProt O95166 1-117, R28K); experiment: as above
# T11 construct: GABARAP, human, with R28K; also called GABARAP R28K mutant
# T11 sequence (O95166 whole entry R28K): as the sequence (O95166 whole entry) above, with R28K counted along it
binder,measurement,setting,value
B1,binding result,6xHis‐tagged GABARAP‐L2,binds
same,binding result,6xHis‐tagged GABARAP,binds
same,binding result,6xHis‐tagged GABARAP‐L1,binds
same,binding result,6xHis‐tagged LC3C,binds
same,binding result,6xHis‐tagged LC3A,binds
same,binding result,6xHis‐tagged LC3B,binds
B2,binding result,6xHis‐tagged GABARAP‐L2,binds
same,binding result,6xHis‐tagged GABARAP,binds
same,binding result,6xHis‐tagged GABARAP‐L1,binds
same,binding result,6xHis‐tagged LC3C,binds
same,binding result,6xHis‐tagged LC3A,binds
same,binding result,6xHis‐tagged LC3B,binds
B3,binding result,6xHis‐tagged GABARAP‐L2,binds
same,binding result,6xHis‐tagged GABARAP,binds
same,binding result,6xHis‐tagged GABARAP‐L1,binds
same,binding result,6xHis‐tagged LC3C,binds
same,binding result,6xHis‐tagged LC3A,binds
same,binding result,6xHis‐tagged LC3B,binds
B4,binding result,6xHis‐tagged GABARAP‐L2,binds
same,binding result,6xHis‐tagged GABARAP,binds
same,binding result,6xHis‐tagged GABARAP‐L1,binds
same,binding result,6xHis‐tagged LC3C,binds
same,binding result,6xHis‐tagged LC3A,binds
same,binding result,6xHis‐tagged LC3B,binds
B5,Ka,[1],20000 M⁻¹
same,Kd,[1],52 µM
same,dH,[1],-7.5 ± 0.1 kcal/mol
B6,binding result,6xHis‐tagged GABARAP‐L2,binds
same,binding result,6xHis‐tagged GABARAP,binds
same,binding result,6xHis‐tagged GABARAP‐L1,binds
same,binding result,6xHis‐tagged LC3C,binds
same,binding result,6xHis‐tagged LC3A,binds
same,binding result,6xHis‐tagged LC3B,binds
B7,binding result,6xHis‐tagged GABARAP‐L2,binds
same,binding result,6xHis‐tagged GABARAP,binds
same,binding result,6xHis‐tagged GABARAP‐L1,binds
same,binding result,6xHis‐tagged LC3C,binds
same,binding result,6xHis‐tagged LC3A,binds
same,binding result,6xHis‐tagged LC3B,binds
B8,Ka,LC3B (for ITC and NMR),160000 M⁻¹
same,Kd,LC3B (for ITC and NMR),6.33 µM
same,dH,LC3B (for ITC and NMR),-5.8 ± 0.2 kcal/mol
same,stoichiometry N,LC3B (for ITC and NMR),1.06 ± 0.01
same,Ka,LC3C (for ITC),290000 M⁻¹
same,Kd,LC3C (for ITC),3.45 µM
same,dH,LC3C (for ITC),-8.3 ± 0.2 kcal/mol
same,stoichiometry N,LC3C (for ITC),0.99 ± 0.02
same,Ka,LC3A (for ITC and NMR),240000 M⁻¹
same,Kd,LC3A (for ITC and NMR),4.22 µM
same,dH,LC3A (for ITC and NMR),-7 ± 0.2 kcal/mol
same,stoichiometry N,LC3A (for ITC and NMR),0.98 ± 0.02
same,Ka,[1],1.8e+06 M⁻¹
same,Kd,[1],0.55 µM
same,dH,[1],-10.6 ± 0.1 kcal/mol
same,stoichiometry N,[1],1 ± 0.01
same,Ka,[2],1.07e+06 M⁻¹
same,Kd,[2],0.93 µM
same,dH,[2],-6.1 ± 0.1 kcal/mol
same,stoichiometry N,[2],1.05 ± 0.01
same,Ka,[3],1.3e+06 M⁻¹
same,Kd,[3],0.77 µM
same,dH,[3],-7.8 ± 0.1 kcal/mol
same,stoichiometry N,[3],1 ± 0.01
B9,Ka,[1],10000 M⁻¹
same,Kd,[1],> 100 µM
same,dH,[1],-1.1 ± 0.1 kcal/mol
B10,binding result,6xHis‐tagged GABARAP‐L2,binds
same,binding result,6xHis‐tagged GABARAP,binds
same,binding result,6xHis‐tagged GABARAP‐L1,binds
same,binding result,6xHis‐tagged LC3C,binds
same,binding result,6xHis‐tagged LC3A,binds
same,binding result,6xHis‐tagged LC3B,binds
B11,binding result,6xHis‐tagged GABARAP‐L2,binds
same,binding result,6xHis‐tagged GABARAP,binds
same,binding result,6xHis‐tagged GABARAP‐L1,binds
same,binding result,6xHis‐tagged LC3C,binds
same,binding result,6xHis‐tagged LC3A,binds
same,binding result,6xHis‐tagged LC3B,binds
B12,binding result,6xHis‐tagged GABARAP‐L2,binds
same,binding result,6xHis‐tagged GABARAP,binds
same,binding result,6xHis‐tagged GABARAP‐L1,binds
same,binding result,6xHis‐tagged LC3C,binds
same,binding result,6xHis‐tagged LC3A,binds
same,binding result,6xHis‐tagged LC3B,binds
B13,binding result,6xHis‐tagged GABARAP‐L2,binds
same,binding result,6xHis‐tagged GABARAP,binds
same,binding result,6xHis‐tagged GABARAP‐L1,binds
same,binding result,6xHis‐tagged LC3C,binds
same,binding result,6xHis‐tagged LC3A,binds
same,binding result,6xHis‐tagged LC3B,binds
B14,binding result,6xHis‐tagged GABARAP‐L2,binds
same,binding result,6xHis‐tagged GABARAP,binds
same,binding result,6xHis‐tagged GABARAP‐L1,binds
same,binding result,6xHis‐tagged LC3C,binds
same,binding result,6xHis‐tagged LC3A,binds
same,binding result,6xHis‐tagged LC3B,binds
B15,binding result,6xHis‐tagged GABARAP‐L2,binds
same,binding result,6xHis‐tagged GABARAP,binds
same,binding result,6xHis‐tagged GABARAP‐L1,binds
same,binding result,6xHis‐tagged LC3C,binds
same,binding result,6xHis‐tagged LC3A,binds
same,binding result,6xHis‐tagged LC3B,binds
B16,binding result,6xHis‐tagged GABARAP‐L2,binds
same,binding result,6xHis‐tagged GABARAP,binds
same,binding result,6xHis‐tagged GABARAP‐L1,binds
same,binding result,6xHis‐tagged LC3C,binds
same,binding result,6xHis‐tagged LC3A,binds
same,binding result,6xHis‐tagged LC3B,binds
B17,Ka,LC3B K30R,190000 M⁻¹
same,Kd,LC3B K30R,5.26 µM
same,stoichiometry N,LC3B K30R,1.11 ± 0.02
same,Ka,GABARAP R28K,1.9e+06 M⁻¹
same,Kd,GABARAP R28K,0.54 µM
same,stoichiometry N,GABARAP R28K,1.05 ± 0.01

# Reference: paper PMC5538626 (EMBO Reports, 2017)
